Results as given in article PMC10543288, “Loss of Bmp2 impairs odontogenesis via dysregulating pAkt/pErk/GCN5/Dlx3/Sp7” (Research Square, 2023).

Biological target: T1, GST full-length Sp7 (mouse, UniProt Q8VI67 1-428)
T1 construct: Sp7 (Osterix, Osx), mouse cDNA, full length; also called GST-Sp7; Osterix
Assay: co-IP; purified GST fusion proteins incubated together, immunoprecipitated with anti-Sp7, anti-Dlx3 or anti-GCN5 antibody and protein G agarose beads, IgG as negative control, detected by Western blotting
Settings: both partners purified

T1 sequence (Q8VI67 whole entry): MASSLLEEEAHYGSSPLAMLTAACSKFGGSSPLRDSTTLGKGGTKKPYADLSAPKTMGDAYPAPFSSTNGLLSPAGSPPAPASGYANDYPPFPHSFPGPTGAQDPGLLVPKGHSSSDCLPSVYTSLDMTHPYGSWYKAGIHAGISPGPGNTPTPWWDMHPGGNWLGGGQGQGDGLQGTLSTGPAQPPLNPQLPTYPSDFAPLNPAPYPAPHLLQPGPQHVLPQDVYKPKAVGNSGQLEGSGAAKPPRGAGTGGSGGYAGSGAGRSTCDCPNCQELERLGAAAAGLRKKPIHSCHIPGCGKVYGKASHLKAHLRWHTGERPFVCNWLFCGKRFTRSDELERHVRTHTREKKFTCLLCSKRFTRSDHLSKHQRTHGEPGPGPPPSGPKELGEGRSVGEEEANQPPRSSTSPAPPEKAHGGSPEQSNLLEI

B1: GST full-length Dlx3 (natural protein)
chain: not shown
notes: Dlx3, mouse cDNA, full length; also called GST-Dlx3
**Q.** Does B1 bind?
**A.** binds
